Assay results: the RNAGym collection of RNA variant scans (doi:10.7554/elife.90254)

B1: OR4K15 (parent)
chain: GUUAACGGUCAUAGGCCAUGGAAACUAGGAGCACCAUUUCGCUGCCAGUGAAGAAAUGAACAAAGAAAAUCUGGGCCAGGCAGGCAUCAAAAGAAAUAGUCUUGCGCUCAACCAGAAAGUCUGUAAUCAUUUUAAGGGUA

Variants of: B1
Assay: self-cleavage, relative activity (ratio to wild type); higher = more cleavage; in vitro, sequencing; the parent is a self-cleaving ribozyme

Row | Variant | self-cleavage
1 | G104A A116U | 0
2 | U57C A116U | 0.33
3 | G58A U133C | 1.94
4 | U49A A98G | 0.44
5 | A52U A90U | 2.35
6 | U72C A110G | 0.06
7 | U39A U57A | 1.37
8 | C17U A110G | 0.05
9 | A94G U124C | 0.21
10 | C81G U127C | 0.04
11 | A54G G115A | 0.25
12 | U100C U122A | 2.11
13 | A67G U102C | 1.56
14 | A118G G138A | 1.14
15 | A47C A64U | 1.56
16 | A5U C109U | 0.68
17 | U3C U124C | 0.9
18 | C40A A95G | 2.53
19 | U43C U57C | 0.31
20 | A55U U103C | 0.91
21 | C105U A111G | 0.02
22 | A64U A110G | 0.11
23 | U38C U133C | 0.93
24 | C34U U72C | 0.17

Row | Variant | self-cleavage
25 | A96G G106C | 0.02
26 | A11G A116U | 0.12
27 | A36G U97C | 2.04
28 | C16G A24G | 0.51
29 | A59G A66U | 1.75
30 | A51G A95U | 0.89
31 | A36C A55G | 1.7
32 | A86G A98U | 1.73
33 | A90U A111G | 0.02
34 | U9C U49G | 0.96
35 | A30G A51U | 1.46
36 | A66G A114C | 0.06
37 | A94G A116C | 0.24
38 | G28A U70A | 1.02
39 | A4U U133C | 1.79
40 | A23G A89C | 1.98
41 | U9C A23G | 1.02
42 | G20A A90G | 0.76
43 | A63C A140G | 1.96
44 | U26C U87A | 1.6
45 | A59U A91G | 0.79
46 | A36U U103C | 1.16
47 | A98G U122C | 0.34
48 | A36C U127A | 2.57

Row | Variant | self-cleavage
49 | A95U A111G | 0.05
50 | U38C A68U | 2.15
51 | A22C U102C | 2.42
52 | A66G A78U | 0.5
53 | A30G U49C | 1.07
54 | U49C U127C | 0.94
55 | A30U G73U | 0.17
56 | A86G A135G | 0.99
57 | U43C A114G | 0.55
58 | G53U A82U | 0.27
59 | A52G A68G | 1.5
60 | A33C A60G | 1.57
61 | G41A U108C | 0.01
62 | U2C A129U | 0.84
63 | U39G A126G | 1.03
64 | A78U A94G | 0.33
65 | G123A A129C | 0.92
66 | U49C A134G | 1.38
67 | A69G U130C | 0.5
68 | G7A U26C | 1.44
69 | A47G U108A | 0.01
70 | U120C A140G | 1.07
71 | U12C U38C | 1.73
72 | C85U U102C | 0.67

Row | Variant | self-cleavage
73 | A22G U72A | 0.49
74 | A11G U37C | 1.16
75 | A11G U120A | 0.58
76 | U19C U57C | 1.37
77 | A63G A66U | 1.49
78 | A69G A110U | 0.98
79 | G44A G65A | 0
80 | A13U C121A | 1.92
81 | G84A A94G | 0.98
82 | A24G A134U | 0.93
83 | A33C A116G | 0.76
84 | U100C | 2.09
85 | A23U A86C | 0.82
86 | U120A U131C | 1.22
87 | C71U | 0.17
88 | U43A A111C | 0.03
89 | A11C A114U | 0.09
90 | U38A U39C | 1.62
91 | U127C U132G | 1.62
92 | A96U G106A | 0.01
93 | A117G U132A | 1.62
94 | A51G G136U | 2.08
95 | U49C U103C | 1.01
96 | A13G A69G | 0.92

Row | Variant | self-cleavage
97 | C45A A91G | 0.61
98 | U3C A52U | 1.8
99 | A24C A54G | 1.21
100 | U102A A129U | 0.31
101 | U72C A135U | 0.28
102 | U3C G75C | 0.08
103 | G14A A134U | 0.5
104 | A13G U127A | 1.91
105 | A11C A91G | 1.67
106 | U72C A126G | 0.12
107 | A63U U120C | 1.25
108 | U38C C105U | 0.19
109 | U19C U37A | 0.9
110 | U39A A51G | 2.15
111 | A92G U103C | 0.6
112 | U9C U87A | 1.98
113 | C17U A18U | 1.26
114 | A117C U122C | 0.4
115 | C45A A117G | 2.96
116 | G106U U122C | 0
117 | U43A A63G | 2.21
118 | A110G U122A | 0.11
119 | C45U U127C | 0.56
120 | C25U U49C | 1.45

Row | Variant | self-cleavage
121 | U57C G137C | 0.73
122 | A11G U127C | 0.63
123 | A55C U124C | 0.95
124 | A11U A125G | 1.3
125 | A59G U108A | 0.01
126 | A11U A82U | 0.31
127 | U103A U122C | 0.35
128 | A47G U49C | 0.98
129 | A60U U103C | 0.16
130 | A36G A94G | 1.86
131 | G80U G123A | 0.14
132 | G15U U87A | 1.44
133 | U2A C61U | 0.71
134 | C61U U133C | 1.21
135 | U9C G106A | 0.01
136 | A91G A110G | 0.11
137 | A67U U122A | 1.36
138 | U12A A135U | 1.29
139 | U38A U132C | 1.58
140 | U39C U70C | 0.95
141 | A33G A52U | 1.42
142 | A11C A24G | 1.94
143 | U2C A55G | 1.15
144 | A33C | 1.35

Row | Variant | self-cleavage
145 | U2A U127C | 1.08
146 | A94G U97C | 1.12
147 | A91G U108A | 0.01
148 | U9C U19A | 1.65
149 | A27G U102C | 1.06
150 | A11G G74U | 0.24
151 | U9A U139C | 1.69
152 | U43C A69U | 1.74
153 | C113A U130C | 0
154 | A4U A36U | 1.62
155 | U37A U130C | 0.61
156 | U100C G115U | 0.71
157 | A56G C101A | 0.12
158 | A68U A78G | 0.27
159 | G14U U87C | 1.48
160 | U39C A55G | 1.66
161 | A24G U39A | 1.45
162 | U37C U49G | 0.44
163 | U19G A126G | 1.18
164 | U19C A55G | 1.17
165 | U37C A94G | 1.76
166 | A23U G123A | 1.5
167 | U38C A51G | 1.33
